Measured values: the supplement of paper PMC5998384

How the values were obtained:
HeLa Kyoto [1] = test: solubility change mitosis vs G1/S (difference of NP-40 vs SDS log2 ratios) (log2 ratio difference); higher = more soluble in mitosis
HeLa Kyoto [2] = test: melting temperature (median over replicates), in situ; higher = more thermally stable
HeLa Kyoto [3] = test: thermal stability score vs G1/S (z-score of summed log2 fold changes over temperatures); higher = more thermally stable than in G1/S
HeLa Kyoto [4] = test: solubility in G1/S (NP-40 vs SDS abundance) (log2 ratio); higher = more soluble; conditions: cell cycle stage: G1/S
[5] = cell cycle stage: early G1 (4.5 h after nocodazole release)
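Wherever melting temperature (median over replicates), in situ is given: HeLa Kyoto cells synchronized by double thymidine or nocodazole block, proteins quantified by TMT10plex mass spectrometry, three independent biological replicates.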
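Wherever solubility change mitosis vs G1/S (difference of NP-40 vs SDS log2 ratios) is given: synchronized HeLa Kyoto cells (double thymidine block for G1/S, nocodazole release for mitosis), protein amounts in NP-40 versus SDS lysates quantified by mass spectrometry, three biological replicates.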
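Wherever solubility in G1/S (NP-40 vs SDS abundance) is given: HeLa Kyoto cells arrested at G1/S by double thymidine block, proteins quantified by TMT10plex mass spectrometry in mild NP-40 versus SDS extracts, three biological replicates.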
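Wherever thermal stability score vs G1/S (z-score of summed log2 fold changes over temperatures) is given: synchronized HeLa Kyoto cells, proteins quantified by TMT10plex mass spectrometry, three biological replicates, mitosis taken 0.5 h after nocodazole release, G1/S directly after double thymidine block.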

With “MDDFERRRELRRQKREEMRLEAERIAYQRNDDDEEEAARERRRRARQERLRQKQEEESLGQVTDQVEVNAQNSVPDEEAKTTTTNTQVEGDDEAAFLERLARREERRQKRLQEALERQKEFDPTITDASLSLPSRRMQNDTAENETTEKEEKSESRQERYEIEETETVTKSYQKNDWRDAEENKKEDKEKEEEEEEKPKRGSIGENQVEVMVEEKTTESQEETVVMSLKNGQISSEEPKQEEEREQGSDEISHHEKMEEEDKERAEAERARLEAEERERIKAEQDKKIADERARIEAEEKAAAQERERREAEERERMREEEKRAAEERQRIKEEEKRAAEERQRIKEEEKRAAEERQRIKEEEKRAAEERQRARAEEEEKAKVEEQKRNKQLEEKKHAMQETKIKGEKVEQKIEGKWVNEKKAQEDKLQTAVLKKQGEEKGTKVQAKREKLQEDKPTFKKEEIKDEKIKKDKEPKEEVKSFMDRKKGFTEVKSQNGEFMTHKLKHTENTFSRPGGRASVDTKEAEGAPQVEAGKRLEELRRRRGETESEEFEKLKQKQQEAALELEELKKKREERRKVLEEEEQRRKQEEADRKLREEEEKRRLKEEIERRRAEAAEKRQKMPEDGLSDDKKPFKCFTPKGSSLKIEERAEFLNKSVQKSSGVKSTHQAAIVSKIDSRLEQYTSAIEGTKSAKPTKPAASDLPVPAEGVRNIKSMWEKGNVFSSPTAAGTPNKETAGLKVGVSSRINEWLTKTPDGNKSPAPKPSDLRPGDVSSKRNLWEKQSVDKVTSPTKV [CALD1]” the “solubility change mitosis (log2)” value (HeLa Kyoto [1]) was 0.119, the melting temperature (HeLa Kyoto [2]; cell cycle stage: G1/S) was 57.1 °C and the melting temperature (HeLa Kyoto [2]; cell cycle stage: mitosis) was 57.1 °C. The thermal stability score (HeLa Kyoto [3]; [5]) was 0.295, the thermal stability score (HeLa Kyoto [3]; cell cycle stage: mitosis) was -2.2 and the “solubility in G1/S (log2)” value (HeLa Kyoto [4]) was 0.0624.

For “MDDSEVESTASILASVKEQEAQFEKLTRALEEERRHVSAQLERVRVSPQDANPLMANGTLTRRHQNGRFVGDADLERQKFSDLKLNGPQDHSHLLYSTIPRMQEPGQIVETYTEEDPEGAMSVVSVETSDDGTTRRTETTVKKVVKTVTTRTVQPVAMGPDGLPVDASSVSNNYIQTLGRDFRKNGNGGPGPYVGQAGTATLPRNFHYPPDGYSRHYEDGYPGGSDNYGSLSRVTRIEERYRPSMEGYRAPSRQDVYGPQPQVRVGGSSVDLHRFHPEPYGLEDDQRSMGYDDLDYGMMSDYGTARRTGTPSDPRRRLRSYEDMIGEEVPSDQYYWAPLAQHERGSLASLDSLRKGGPPPPNWRQPELPEVIAMLGFRLDAVKSNAAAYLQHLCYRNDKVKTDVRKLKGIPVLVGLLDHPKKEVHLGACGALKNISFGRDQDNKIAIKNCDGVPALVRLLRKARDMDLTEVITGTLWNLSSHDSIKMEIVDHALHALTDEVIIPHSGWEREPNEDCKPRHIEWESVLTNTAGCLRNVSSERSEARRKLRECDGLVDALIFIVQAEIGQKDSDSKLVENCVCLLRNLSYQVHREIPQAERYQEAAPNVANNTGPHAASCFGAKKGKDEWFSRGKKPIEDPANDTVDFPKRTSPARGYELLFQPEVVRIYISLLKESKTPAILEASAGAIQNLCAGRWTYGRYIRSALRQEKALSAIADLLTNEHERVVKAASGALRNLAVDARNKELIGKHAIPNLVKNLPGGQQNSSWNFSEDTVISILNTINEVIAENLEAAKKLRETQGIEKLVLINKSGNRSEKEVRAAALVLQTIWGYKELRKPLEKEGWKKSDFQVNLNNASRSQSSHSYDDSTLPLIDRNQKSDKKPDREEIQMSNMGSNTKSLDNNYSTPNERGDHNRTLDRSGDLGDMEPLKGTTPLMQDEGQESLEEELDVLVLDDEGGQVSYPSMQKI [CTNND1]”, the “solubility change mitosis (log2)” value (HeLa Kyoto [1]) was -0.0563, the melting temperature (HeLa Kyoto [2]; cell cycle stage: G1/S) was 48.1 °C and the melting temperature (HeLa Kyoto [2]; cell cycle stage: mitosis) was 48 °C. For the same sequence, the thermal stability score (HeLa Kyoto [3]; [5]) was -0.443, the thermal stability score (HeLa Kyoto [3]; cell cycle stage: mitosis) was 1.3 and the “solubility in G1/S (log2)” value (HeLa Kyoto [4]) was 0.228.

In the case of “MDEAVGDLKQALPCVAESPTVHVEVHQRGSSTAKKEDINLSVRKLLNRHNIVFGDYTWTEFDEPFLTRNVQSVSIIDTELKVKDSQPIDLSACTVALHIFQLNEDGPSSENLEEETENIIAANHWVLPAAEFHGLWDSLVYDVEVKSHLLDYVMTTLLFSDKNVNSNLITWNRVVLLHGPPGTGKTSLCKALAQKLTIRLSSRYRYGQLIEINSHSLFSKWFSESGKLVTKMFQKIQDLIDDKDALVFVLIDEVESLTAARNACRAGTEPSDAIRVVNAVLTQIDQIKRHSNVVILTTSNITEKIDVAFVDRADIKQYIGPPSAAAIFKIYLSCLEELMKCQIIYPRQQLLTLRELEMIGFIENNVSKLSLLLNDISRKSEGLSGRVLRKLPFLAHALYVQAPTVTIEGFLQALSLAVDKQFEERKKLAAYI [TRIP13]”, the “solubility change mitosis (log2)” value (HeLa Kyoto [1]) is reported as -0.116, the melting temperature (HeLa Kyoto [2]; cell cycle stage: G1/S) is reported as 50.9 °C and the melting temperature (HeLa Kyoto [2]; cell cycle stage: mitosis) is reported as 51.3 °C. For the same sequence, the thermal stability score (HeLa Kyoto [3]; [5]) was 3.83, the thermal stability score (HeLa Kyoto [3]; cell cycle stage: mitosis) was 2.94 and the “solubility in G1/S (log2)” value (HeLa Kyoto [4]) was -0.0812.

For “MDFLMSGLAACGACVFTNPLEVVKTRMQLQGELQAPGTYQRHYRNVFHAFITIGKVDGLAALQKGLAPALLYQFLMNGIRLGTYGLAEAGGYLHTAEGTHSPARSAAAGAMAGVMGAYLGSPIYMVKTHLQAQAASEIAVGHQYKHQGMFQALTEIGQKHGLVGLWRGALGGLPRVIVGSSTQLCTFSSTKDLLSQWEIFPPQSWKLALVAAMMSGIAVVLAMAPFDVACTRLYNQPTDAQGKGLMYRGILDALLQTARTEGIFGMYKGIGASYFRLGPHTILSLFFWDQLRSLYYTDTK [SLC25A35]”, the “solubility change mitosis (log2)” value (HeLa Kyoto [1]) was -0.137, the melting temperature (HeLa Kyoto [2]; cell cycle stage: G1/S) was 56.2 °C and the melting temperature (HeLa Kyoto [2]; cell cycle stage: mitosis) was 54.3 °C. The thermal stability score (HeLa Kyoto [3]; [5]) was 0.653, the thermal stability score (HeLa Kyoto [3]; cell cycle stage: mitosis) was -0.326 and the “solubility in G1/S (log2)” value (HeLa Kyoto [4]) was 0.0544.
